Laboratory results as given in patent publication USRE50631E1, “ROR1 antibody immunoconjugates” (VelosBio Inc., priority 2017, dated 2025).

B1: D10: a lower affinity antibody that binds the same epitope as Ab1 (antibody, V domains shown)
VH: QVQLKESGPGLVAPSQTLSITCTVSGFSLTSYGVHWVRQPPGKGLEWLGVIWAGGFTNYNSALKSRLSISKDNSKSQVLLKMTSLQTDDTAMYYCARRGSSYSMDYWGQGTSVIVSS
VL: EIVLSQSPAITAASLGQKVTITCSASSNVSYIHWYQQRSGTSPRPWIYEISKLASGVPVRFSGSGSGTSYSLTISSMEAEDAAIYYCQQWNYPLITFGSGTKLEIQ
B2: ADC-S: D10 conjugated via MAL-VC-PAB to MMAE (conjugate)
VH: B1 VH
VL: B1 VL

Columns and labels:
ROR1 on Jeko-1 cells = molecular target: T1, ROR1 on Jeko-1 cells (Homo sapiens, UniProt Q01973); experiment: Binding to ROR1-positive Jeko-1 cells (flow cytometry receptor binding assay); conditions: 20 minutes on ice, PE secondary antibody
T1 construct: The Jeko-1 cell line, from mantle cell lymphoma, is a suspension cell line; host or cells: Jeko-1 (human mantle cell lymphoma)
T1 sequence (Q01973 30-937): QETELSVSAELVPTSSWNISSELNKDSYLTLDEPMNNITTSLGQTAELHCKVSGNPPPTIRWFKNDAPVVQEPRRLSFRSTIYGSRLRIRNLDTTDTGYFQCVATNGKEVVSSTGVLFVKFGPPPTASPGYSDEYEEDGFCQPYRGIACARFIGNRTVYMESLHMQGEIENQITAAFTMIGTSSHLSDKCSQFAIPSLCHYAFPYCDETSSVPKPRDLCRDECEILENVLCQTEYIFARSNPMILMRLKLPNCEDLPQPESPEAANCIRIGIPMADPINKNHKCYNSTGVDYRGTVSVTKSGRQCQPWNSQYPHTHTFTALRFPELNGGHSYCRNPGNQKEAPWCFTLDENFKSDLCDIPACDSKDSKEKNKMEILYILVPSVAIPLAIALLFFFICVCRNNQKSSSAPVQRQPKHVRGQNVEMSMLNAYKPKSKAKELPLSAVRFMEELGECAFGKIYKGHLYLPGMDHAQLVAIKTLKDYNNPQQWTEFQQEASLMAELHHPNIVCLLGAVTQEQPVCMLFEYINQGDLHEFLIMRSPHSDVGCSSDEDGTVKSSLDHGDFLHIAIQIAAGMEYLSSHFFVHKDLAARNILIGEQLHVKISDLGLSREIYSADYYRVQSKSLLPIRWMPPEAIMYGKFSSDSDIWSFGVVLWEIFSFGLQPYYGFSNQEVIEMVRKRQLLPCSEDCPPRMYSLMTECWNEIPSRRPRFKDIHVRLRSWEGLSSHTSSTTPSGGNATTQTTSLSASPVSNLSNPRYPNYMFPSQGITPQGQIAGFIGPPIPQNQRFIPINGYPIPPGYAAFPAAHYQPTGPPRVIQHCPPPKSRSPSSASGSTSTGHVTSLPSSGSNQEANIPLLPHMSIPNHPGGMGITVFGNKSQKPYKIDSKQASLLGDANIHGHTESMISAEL
Description: The binding to tumor cells by antibodies Ab1 and 4A5, as well as ADC constructs derived from those antibodies (ADC-A and ADC-T), was evaluated. First, the binding of Ab1 to two ROR1-positive human tumor cell lines representing different cancer types was tested. The Jeko-1 cell line, from mantle cell lymphoma, is a suspension cell line, while the MDA-MB-231 cell line, from triple negative breast cancer, is an adherent cell line. The cell lines have different levels of ROR1 expression, with Jeko-1 cells displaying about 13507 cell surface copies and the MDA-MB-231 cells displaying about 21015 cell surface copies. The Jeko-1 (ATCC Cat. No. CRL-3006) and MDA-MB-231 (ATCC Cat. No. […]) cell lines were purchased from the American Type Culture Collection and were maintained according to the ATCC recommendations.
Jeko-1 cells (FIG. 2A) or MDA-MB-231 cells (FIG. 2B) were incubated with 0, 1, 10, 100, or 1000 ng/mL of Ab1 for 20 minutes on ice. After washing off unbound antibody, the cells were incubated with secondary anti-human IgG antibody labeled with phycoerythrin (PE) for an additional 20 minutes. The amount of PE fluorescence was measured using the BDFACS Verse analyzer and FlowJo V10 software. The PE signal for the highest concentration was used as the maximal binding signal to calculate the % maximal binding. EC50 was calculated using GraphPad Prism 7. […]

Mino = experiment: Cytotoxicity in vitro (CellTiter-Glo viability), Mino; type: cell-based, human; conditions: Mino (MCL), 72 hours
Description: Cells were cultured in log phase growth and distributed into 96-well plates. Each cell line was plated at a slightly different cell density, ranging from 5×10^3 to 50×10^4 cells/well. Cells in duplicate were incubated with 3-fold serial dilution of a particular immunoconjugate (10, 3.33, 1.11, 0.37, 0.12, 0.041, 0.014, and 0.0045 μM) for 72 hours at 37° C. and 5% CO2. After treatment, cells were incubated with an equal volume of CellTiter-Glo® reagent (Promega Inc.) for 15 minutes at room temperature and viability was determined by a luminometer. Curves and EC50 values were generated in GraphPad Prism using a sigmoidal dose response non-linear regression fit.
Cells were grown and distributed into 96-well plates as described in Example 5. Cells in duplicate were incubated with 3-fold serial dilution of a particular immunoconjugate (660, 220, 73.3, 24.4, 8.14, 2.71, 0.91, and 0.3 nM) for 72 hours at 37° C. and 5% CO2. In some experiments, cells were incubated with an immunoconjugate for 96 hours instead of 72 hours (values highlighted with “*”). After treatment, cell viability was determined as described in Example 5.

Jeko-1 MCL xenograft = experiment: Jeko-1 human MCL xenograft model (study 7); type: in vivo, mouse; conditions: 1 mg/kg ADC-N, ADC-P, ADC-R; 5 mg/kg ADC-A, ADC-L, ADC-M, ADC-S, ADC-T; IV Q4D
Description: Jeko-1 (MCL) cells were engrafted subcutaneously into mice. When tumor size reached 100 mm^3, the mice were randomized into nine groups, 9 mice/group. The groups were vehicle control; 1 mg/kg ADC-N, ADC-P or ADC-R; or 5 mg/kg ADC-A, ADC-L, ADC-M, ADC-S, or ADC-T. The mice were dosed IV q4d.

Molecule	EC50 of binding to cells (ROR1 on Jeko-1 cells)	EC50 (Mino)	tumor growth / average tumor size (interim results, day 14) (Jeko-1 MCL xenograft)
B1	0.25 µg/mL	–	–
B2	0.15 µg/mL	83.3 nM	Significant tumor regression
